Measured values from patent publication US8536230B2, “Methods for regulating gelation of polysaccharide solutions and uses thereof” (University of Virginia Patent Foundation, priority 2006, dated 2013).

Assay: In vitro release of FITC-dextran / FITC-albumin from chitosan-AHP gels in PBS
Type: physicochemical
Conditions: FITC albumin loaded (1, 2, and 3%) gels, PBS 37° C.
Procedure: FITC dextran loaded samples (0.5×1 cm) were placed in histology cups and incubated in 50 mL PBS at 37° C. in a shaking water bath. At predetermined time points, 5 mL of the release media was removed and replenished with 5 mL of PBS. The FITC dextran concentration was determined spectrophotometrically and the percentage cumulative release was calculated. The three groups include 1% dextran, 0.5% dextran, and 0.5% dextran diluted. (see FIG. 8A).
For FITC-dextran loading, appropriate amounts (0.5, 1, and 5% w/v) of FITC-dextrans were dissolved in chitosan-AHP solutions. The respective dextran loaded solutions were poured into petri dishes and allowed to set at 37° C. for 12 h. Circular discs (8 mm diameter) were bored from the thermo-gelled films for in vitro release studies. […] The FITC-dextran concentration in the release media were determined spectrophotometrically at 491 nm and the percentage cumulative release was calculated based on the total FITC-D content. Statistical significance (p<0.05) was determined using one way ANOVA.
Also tested was the release profile of FITC-labeled bovine serum albumin from chitosan-AHP gels represented as the percentage cumulative release. […] The FITC albumin concentration was determined spectrophotometrically and the percentage cumulative release was calculated. […]

FITC-albumin: FITC-labeled bovine serum albumin loaded in chitosan-AHP gels
percentage cumulative release profile: significantly lower compared to FITC-Dextran
